Laboratory results from US20150031620.

Columns and labels:
[1] = tested on: mutant rTMD23NA (thrombomodulin domains 2 and 3 with N364A and N391A)
[2] = tested on: recombinant human TMD23 (wild-type thrombomodulin domains 2 and 3)
Sequence of recombinant human TMD23 (wild-type thrombomodulin domains 2 and 3) (chain, as listed by the source): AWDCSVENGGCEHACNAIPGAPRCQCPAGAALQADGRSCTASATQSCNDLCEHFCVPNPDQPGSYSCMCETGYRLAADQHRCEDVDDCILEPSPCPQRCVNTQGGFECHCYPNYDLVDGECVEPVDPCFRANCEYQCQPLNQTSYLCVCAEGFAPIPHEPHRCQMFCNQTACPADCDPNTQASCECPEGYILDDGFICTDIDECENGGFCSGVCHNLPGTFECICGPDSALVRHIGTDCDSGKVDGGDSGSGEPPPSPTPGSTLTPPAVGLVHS

Sequence of mutant rTMD23NA (thrombomodulin domains 2 and 3 with N364A and N391A) (chain, as listed by the source N364A N391A): as the sequence (chain, as listed by the source) above, with N141A, N168A counted along it

thrombin was tested. Which “thrombin-dependent activation of protein C (hydrolysis of Chromozym PCa, absorbance at 405 nm)” value [1] did it give?
Its value is “The mutant rTMD23NA lost its cofactor activity in catalyzing thrombin-dependent activation of Protein C”.

What about the “thrombin-dependent activation of protein C (hydrolysis of Chromozym PCa, absorbance at 405 nm)” value [2] of the same substance?
The value was “only recombinant TMD23 gave rise to thrombin-dependent protein C activation”.
